Reference: patent publication US20100196390A1 (RINAT NEUROSCIENCE, published 2010)
Positions count from the first letter of the chain named.

B1: 3-F2 (Fab, V domains shown)
VH: QVQLVQSGAEVKKPGASVKVSCKASGYTFTNYVILWVRQAPGQGLEWMGYINPYNDGTKYNEKFKGRVTMTRDTSTSTVYMELSSLRSEDTAVYYCARLLKYRRFSYYAIDYWGQGTTVTVSS
VL: DIQMTQSPSSLSASVGDRVTITCRASENVYSNLAWYQQKPGKAPKLLIYAASNLQSGVPSRFSGSGSGTDFTFTISSLQPEDIATYYCQHFWYSPFIFGQGTKLEIK
notes: Fab
B2: 3-F7 (Fab, V domains shown)
VH: B1 VH with S106R
VL: B1 VL with Y93K, I97T
notes: Fab
B3: 3-F10 (Fab, V domains shown)
VH: B1 VH
VL: B1 VL with I97K
notes: Fab
B4: 3-F11 (Fab, V domains shown)
VH: B1 VH with S106R
VL: B1 VL with I97T
notes: Fab
B5: 3-G5 (Fab, V domains shown)
VH: B1 VH
VL: B1 VL with H90N, I97T
notes: Fab
B6: 3-G7 (Fab, V domains shown)
VH: B1 VH with I110E
VL: B1 VL with H90N, I97T
notes: Fab
B7: 3-H8 (Fab, V domains shown)
VH: B1 VH with S106R
VL: B1 VL with I97V
notes: Fab
B8: 4-A1 (Fab, V domains shown)
VH: B1 VH
VL: B1 VL with W92Y, I97T
notes: Fab
B9: 4-B2 (Fab, V domains shown)
VH: B1 VH with S106R
VL: B1 VL with Y93G, I97T
notes: Fab
B10: 4-C7 (Fab, V domains shown)
VH: B1 VH
VL: B1 VL with Y93G, I97T
notes: Fab
B11: 4-D4 (Fab, V domains shown)
VH: B1 VH with S106R
VL: B1 VL with I97T
notes: Fab
B12: 4-E1 (Fab, V domains shown)
VH: B1 VH with R104A
VL: B1 VL with Y93G, I97T
notes: Fab
B13: 4-F10 (Fab, V domains shown)
VH: B1 VH
VL: B1 VL with H90Q, I97T
notes: Fab
B14: 4A6-12 (Fab, V domains shown)
VH: B1 VH with V33D, L35I, D56R, G57R, T58R, S106R
VL: B1 VL with R24H, F71Y, Y93G, I97T
notes: Fab
B15: 4B12-2 (Fab, V domains shown)
VH: B1 VH with V33D, L35I, N55Q, D56G, G57R, T58R, K59E, S106R
VL: B1 VL with N28P, L33V, F71Y, Y93G, I97T
notes: Fab
B16: 4B12-3 (Fab, V domains shown)
VH: B1 VH with V33D, L35I, N55V, D56G, G57R, T58R, K59E, S106R
VL: B1 VL with N28P, L33V, F71Y, Y93G, I97T
notes: Fab
B17: 4B12-4 (Fab, V domains shown)
VH: B1 VH with V33D, L35I, D56A, G57R, T58R, K59E, S106R
VL: B1 VL with N28P, L33V, F71Y, Y93G, I97T
notes: Fab
B18: 4B12-5 (Fab, V domains shown)
VH: B1 VH with V33D, L35I, G57R, T58R, K59E, S106R
VL: B1 VL with N28P, L33V, F71Y, Y93G, I97T
notes: Fab
B19: 4B12-6 (Fab, V domains shown)
VH: B1 VH with V33D, L35I, D56G, T58R, K59E, S106R
VL: B1 VL with N28P, L33V, F71Y, Y93G, I97T
notes: Fab
B20: 4B12-7 (Fab, V domains shown)
VH: B1 VH with V33D, L35I, D56G, G57R, K59E, S106R
VL: B1 VL with N28P, L33V, F71Y, Y93G, I97T
notes: Fab
B21: 4B12-8 (Fab, V domains shown)
VH: B1 VH with V33D, L35I, D56G, G57R, T58R, S106R
VL: B1 VL with N28P, L33V, F71Y, Y93G, I97T
notes: Fab
B22: 4B12-13 (Fab, V domains shown)
VH: B1 VH with V33D, L35I, D56G, G57R, T58R, K59E, E62A, S106R
VL: B1 VL with N28P, L33V, F71Y, Y93G, I97T
notes: Fab
B23: 4B12-14 (Fab, V domains shown)
VH: B1 VH with V33D, L35I, N52S, D56G, G57R, T58R, K59E, S106R
VL: B1 VL with N28P, L33V, F71Y, Y93G, I97T
notes: Fab
B24: 4B12-15 (Fab, V domains shown)
VH: B1 VH with V33D, L35I, N52A, D56G, G57R, T58R, K59E, S106R
VL: B1 VL with N28P, L33V, F71Y, Y93G, I97T
notes: Fab
B25: 4B12-16 (Fab, V domains shown)
VH: B1 VH with V33D, L35I, P53A, D56G, G57R, T58R, K59E, S106R
VL: B1 VL with N28P, L33V, F71Y, Y93G, I97T
notes: Fab
B26: 4B12-17 (Fab, V domains shown)
VH: B1 VH with V33D, L35I, Y54A, D56G, G57R, T58R, K59E, S106R
VL: B1 VL with N28P, L33V, F71Y, Y93G, I97T
notes: Fab
B27: 4B12-18 (Fab, V domains shown)
VH: B1 VH with V33D, L35I, N55A, D56G, G57R, T58R, K59E, S106R
VL: B1 VL with N28P, L33V, F71Y, Y93G, I97T
notes: Fab
B28: 4B12-19 (Fab, V domains shown)
VH: B1 VH with V33D, L35I, D56G, G57R, T58R, K59E, Y60A, S106R
VL: B1 VL with N28P, L33V, F71Y, Y93G, I97T
notes: Fab
B29: 4B12-20 (Fab, V domains shown)
VH: B1 VH with V33D, L35I, D56G, G57R, T58R, K59E, N61A, S106R
VL: B1 VL with N28P, L33V, F71Y, Y93G, I97T
notes: Fab
B30: 4B12-21 (Fab, V domains shown)
VH: B1 VH with V33D, L35I, D56G, G57R, T58R, K59E, K101A, S106R
VL: B1 VL with N28P, L33V, F71Y, Y93G, I97T
notes: Fab
B31: 4B12-22 (Fab, V domains shown)
VH: B1 VH with V33D, L35I, D56G, G57R, T58R, K59E, R103A, S106R
VL: B1 VL with N28P, L33V, F71Y, Y93G, I97T
notes: Fab
B32: 4B12-23 (Fab, V domains shown)
VH: B1 VH with V33D, L35I, D56G, G57R, T58R, K59E, R104A, S106R
VL: B1 VL with N28P, L33V, F71Y, Y93G, I97T
notes: Fab
B33: 4B12-24 (Fab, V domains shown)
VH: B1 VH with V33D, L35I, D56G, G57R, T58R, K59E
VL: B1 VL with N28P, L33V, F71Y, Y93G, I97T
notes: Fab
B34: 4B12-25 (Fab, V domains shown)
VH: B1 VH with V33D, L35I, D56G, G57R, T58R, K59E, K101R, S106R
VL: B1 VL with N28P, L33V, F71Y, Y93G, I97T
notes: Fab
B35: 4B12-26 (Fab, V domains shown)
VH: B1 VH with V33D, L35I, D56G, G57R, T58R, K59E, S106A
VL: B1 VL with N28P, L33V, F71Y, Y93G, I97T
notes: Fab

target: TrkB (Homo sapiens (Human), UniProt Q16620 32-430); experiment: koff of Fab at 25 C; T1/2=Log2/koff
Sequence (Q16620 32-430 limits assumed): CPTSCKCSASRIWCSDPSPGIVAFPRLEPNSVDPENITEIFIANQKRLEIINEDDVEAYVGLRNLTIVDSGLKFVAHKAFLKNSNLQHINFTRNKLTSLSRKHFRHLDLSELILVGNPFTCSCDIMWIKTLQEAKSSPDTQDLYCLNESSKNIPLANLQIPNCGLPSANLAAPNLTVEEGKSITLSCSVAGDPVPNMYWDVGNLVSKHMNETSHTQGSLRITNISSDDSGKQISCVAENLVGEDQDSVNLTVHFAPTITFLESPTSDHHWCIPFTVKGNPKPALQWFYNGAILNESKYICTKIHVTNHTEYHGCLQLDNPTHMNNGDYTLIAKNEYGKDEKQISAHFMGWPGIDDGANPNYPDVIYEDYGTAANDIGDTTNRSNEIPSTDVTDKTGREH
Method in brief: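 Monovalent Fab fragments were tested at 25° C by surface plasmon resonance on a Biacore instrument, against TrkB extracellular-domain monomer amine-coupled to the chip at low capacity. Fabs were injected low to high as a 3-fold serial dilution from 100 nM for 84 sec, with a 10 minute dissociation after the top sample. The dissociation half-life was calculated from koff, which was fitted to a Langmuir binding model in BIAevaluation. The formula used was T1/2 = Log 2/koff.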

Point of comparison: B12, T1/2 0.71 min. Against it:
- B1 — 1.9-fold higher, 1.38 min
- B2 — within 1.5-fold, 1.01 min
- B3 — within 1.5-fold, 0.79 min
- B4 — 1.6-fold higher, 1.16 min
- B5 — 1.7-fold higher, 1.21 min
- B6 — within 1.5-fold, 0.92 min
- B7 — within 1.5-fold, 0.81 min
- B8 — within 1.5-fold, 0.93 min
- B9 — 1.9-fold higher, 1.33 min
- B10 — 2-fold higher, 1.4 min
- B11 — 1.7-fold higher, 1.24 min
- B13 — within 1.5-fold, 1.03 min
- B14 — 100-fold higher, 74.2 min
- B15 — 8.2-fold higher, 5.8 min
- B16 — 9.3-fold higher, 6.6 min
- B17 — 16-fold higher, 11.4 min
- B18 — 23-fold higher, 16.1 min
- B19 — 5.2-fold higher, 3.7 min
- B20 — 11-fold higher, 7.6 min
- B21 — 19-fold higher, 13.8 min
- B22 — 19-fold higher, 13.7 min
- B23 — 4.5-fold higher, 3.2 min
- B24 — 3.8-fold higher, 2.7 min
- B25 — 7.9-fold higher, 5.6 min
- B26 — within 1.5-fold, 1 min
- B27 — 5.4-fold higher, 3.8 min
- B28 — 18-fold higher, 13.1 min
- B29 — 17-fold higher, 12.2 min
- B30 — 2.4-fold lower, 0.3 min
- B31 — 4.9-fold higher, 3.5 min
- B32 — 15-fold higher, 10.8 min
- B33 — 8.5-fold higher, 6 min
- B34 — 1.5-fold higher, 1.1 min
- B35 — 11-fold higher, 8.1 min
